Our source for the protease stability score values is the NTF2 design screens of Basanta et al. (2020).

The nature of the series: protease stability score; higher = more stable; yeast display proteolysis, trypsin and chymotrypsin.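 Further: relative to predicted unfolded state with 0 unfolded-like and 1 meaning tenfold more protease.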
On to “DEEKKDLDILIEILFEIIYTGNEEKFRELVDPNAKSRVGDKKTHGREDATKLLSKKWRHMRIRTMDVHDFRHYDGQIDVDSRLDGDINGVELLLEVRLILVKYDGRWLIKNIHIQ”, for which the protease stability score amounted to 1.43.
The figure for “DEEKKDLERLYELLLRSMFTGDWRALEELMDPNVLLQVNGKELHGWKLMVRVMREIRIEDHEVKHIELQGDKIHMDTRTHGEFDGRTDTTKTHVLAKKVDGQWRLKHYKID” is 0.932.
The figure for “DEEKKDVHKIWELFVEHYYTGDEEFLHRMADPNVRSDVNGKELHGRESLLSLMREWIDRADVIQHIDVEDRRIQGDKAYIRTRFVGLVNGKPVSTDVTIILSKVNGQWFMHRIVIK” is 1.61; for “DEEKKEILEIARRVIESLLTGDWEEDHELADPNVLYIQGDKEVHGMETTWRIIFELRHQIKGMTEHIHIRRVEIVNGVAHLDTELRLNVNGREVTHETHVHIFLYNGRVKRIEVRIK” it is 1.48; for “DEEKKEIQKAVDLMRHLLVTGDENTLHHLLDPNVRLIVGDKFFHGREELIRVWSEEIESMGFDHVEMHVRHVRVIGDKADVQMEIRFDVNGREHSREFRVRLRKIDGQWVIKSIEIR” it is 2.15.
The sequence “DEEKKEQRHFLKKLADSIATGDEESLEKMVDPNAKSVVNGVEQHGMELMVENLREWLERLGVTKISFHEKRFRLIGNKLEVDGTIEVNGKKFESHFIVEKVDGQWRIREIRLH” showed a protease stability score of 0.931.
The value for “DEEKKEVNRIFELWARLFETGDEDSIHRLLDPNARLEVNGQEIHGRHNISRTFLEFKERFKGIKIELILREVRVIGDKVHIHSELRVNINGREESFETDIDLVVIDGKLHSFRFHVH” was 2.48; that for “DEEKKFIHYLAHLLIELILTGDEDTFEKLADPDVRLSIFAENHELHWHGREEVLRELIHWTRRVDHIHMKLDHSRIINGKSHMDGNLVDIQGDKKIEKKVTVILVVVNGKVKRIEIWIG” was 1.47; that for “DEEKKFYIKLFELFWRAWLTGNEQFLLEMADPNVKVEYTYNGRDVRTHGRETMYTFLHEILRYLGVKHSRLRRDEFQGDKVHLDVEEHFNGRTVKTLIIIDVVDGRLEIDKFHTT” was 0.705.
As to “DEEKKKFEHWVKLVIHALLTGDEKHLNDMADPNVKVRSVFNGRHVELHGRENEHRWLEKLRKRLGVDHIEITDSVIQGDKVEIDSRYIQGDKEFKSSIHIVVVNGRTHENEFIFH”, the protease stability score is 1.1.
The figure for “DEEKKLAHKIARILMDLFLTGNEEVWKELMDPHVKFEIGDFIDHGWEAVKRYYEVLGFDHIQETDLESIVIFENHVILHIRIHGEVNGRQVDTTVTLFIEKINGKWYIRTIRIH” is 2.5; for “DEEKKLMLESMKQTLDKIFTGDFDSTAEYLDPHARYIIGDKTLHGMERWKEFLDRFDHVHIHDVKLHSVRIIDGVAILDGRIDTEIIINGVRIRETVEVQIVIVKVNGRWKDERVEFK” it is 0.13; for “DEEKKLSDFAFRLLEENLRTGNEDDIRRYADPSVKIEVGDKTIHGMEAVSRVITEWRVHDLKIEREEIQGNKVHIDSNIDGQVGEKREHSLLILIMVKVNGRWVIKSIRIH” it is 0.386.
The sequence “DEEKKLYHHIWDRLRRALETGNEEELHKLADPDVRVIIGDKHFHGRDELYRLTEEIRVVITEIRLHDKDHQGDKVILDVEERVNVQVDGKETEYRFRSTLYFVKINGRWTLRRIELK” returned a protease stability score of 1.52.
The figure for “DEEKKNIERLTEILAHVIRTGDEESWERMMDPNARATQGDKVMVGRDLLEHLWRRIDVIDHVRLEPKHVHRQGDKIHIDVENEVHGTVNGVKISEKHKEILVIYKFDGRWHFHSIEIT” is 0.064.
The value for “DEEKKQVKDMMELYFRLFVTGNEEILTHLADPDTRIEIDGVSRVGMEEFKRMLEEYLKRLGADHIELRHWDIKFFNGRAINRLHIHIHYGDKSEDVRVTLILEKIDGRWRNRSEHREVG” was 0.771; that for “DEEKKSSDIAIHESLRVLKTGDEHDISEMMDPHVRIDINGREIIGMELASEIHHEIMNRIKNVRIEVKDRKLVNGQIILRGELRWNGQTVELEVTLKKINGKWWMESLHVR” was 0.606.
The value for “DEEKKVAMELAILLFHLWLTGDEETERRLADPDTRMDVDGKDIIGREELSKVWERILKEMRFDRWEVDRVDVVNGQVHLHGHIRGKYNGKEETREIEITINIVNGRLKSVHFNLR” was 1.87.
For the sequence “DEEKKVAQTFLELLYRAIHTGDEDEIRRMMDPNYRMEINGKEFHGREDIVHRLVRIEKHLGFKHFHIKDMRTVGDKIDLHTEVIIGDFRWDVHIHIEKVNGRWLQTERRIE”, the protease stability score was 0.521.
“DEEKNLIIELVHLFLVAFWTGNEELLRHLADPDVRFEIDGREHHGREELEKHLEHWWMKIEHIEEKEIRVIDGRVHIDGHVRGTLIINGRENRISYDVEIHAEVIDGRFKYVKVKQK” came in with a protease stability score of 2.48.
The figure for “DEEKQDMDTAIKIFVEEYKTGDEENLLRNMDPEARVRQGDKHFHGREEVWKFWRRLFHDAGLDNVNVELRHITSQGNKIEVRGVLRIGDKELDVEFILKKVDGRWLIKFILFR” is 1.91; for “DEEKRDAREFLHLLFHAMITGDEDLVRHLADPHVKLDVNGRELHGWELFLTWFKRLLEEIRLTDIDVHHIELQGNKIILDTRLHVRVGDKEVDIHTEFHVVKVNGKWRLKTMRTE” it is 2.61; for “DEEKRDVDDAKEVWDRIFKTGDEHQLERNFDPNVRQHIDGREHVGREEFRKEFHKILLLLGVKHLRIEFHDEEYQGDKIILRGTLFFEVNGRIEIWIVTIIARKVNGQWLVHTVHHN” it is 0.425.
For the sequence “DEEKRFHHKLLRLFLESFLTGDWRLWYKLADPNARFHAPNHESHGREEVVEMIFKWLKQYDHVEIRIHDVRYYNGQIRMDVELHFRQGDKETSTKLDLILIVVDGRITEVHFDVR”, the protease stability score worked out at 0.916.
As to “DEEKRHDEKLVEDFIHNVLTGDWEKLLRNMDPHARIHVDVGNFREERVGREDWIETLARRKNARFHIESYRIYNGQVDMEVRIEQGDKEHKFKLIIKFVDGVVRSISMQVE”, the protease stability score is 1.26.
The figure for “DEEKRHHDEWRQFFLDSIKTGNWFELLKMIDPNTKILINGKEFHGRDAMHHFLTELRRRVDHLERFDIHHIDIQGNKAFDDTRLEGRINGVETHIDLLLISTKVNGVWYLKSVELR” is 2.13.
The value for “DEEKRHSDEIIEEWVRSLITGDEKRIRELHDPTTLLNNENEKYHGMEIATELRRRIRENMGIKHSEVRVHDIEWQGDKITIYGRLILRFNGKEVEHELLIVATKINGRWVLRSMRIE” was 1.48; that for “DEEKRLLEEAARHMVDSWRTGDEEVIERMMDPHDKLILYINGVNFDLHGREIVSRWIKEELDEIRIRINVEDIKVFNGVAFVDGELRVEINGREKRVKEEIILFIIDGRLKSHEIRRH” was 1.23.
Turning to “DEEKRRASELIIHLWHNFLTGNEDRFRELFDPNVKAKLDVGDKSVDHIGRDHVLDWLRLVRHEIRIHHYEHKRERVYGDKWESDGHVDGEFNGRRTETHFEIILVIIDGKLHFLILNFH”, the protease stability score was -0.076.
The figure for “DEEKRRSHELADLWWEMLETGDWDRTKNLMDPDTRLHIGDKEDHGMENFYRFRKDFESQFPNMRIELKSHRVQGDFFEIKGKINFNGRLVEAEIRVKIVDGRLKEIHVHIK” is 0.821; for “DEEKTIHNHLMELVVRAFLTGDEELWSNLADPDTKEIIDGKTNVGREEVAKFWKDLVHKFKNARWHITIKRVDVIDGQVRQNSHLEIRYGDKHFHLETEDHLYVINGRLKQFEFRVN” it is 1.18.
The figure for “DEELEMLRRFWEDLLHSAKTGDEELWERLADPNVRVIINGKLFHGRELASHALRELFERVDVIKDVKITDEKRQGDKIHLDIRVHNHYNGKFEDNDLHIVLVKVDGKWFLKSVEFR” is 2.12; for “DEELHHQERLLREFLHAEFTGDEDKLRHLADPRTRSDLEFENVEIVLHGMDEHVKWWEELGFKIDEMRISRIDVVGNFIILDTRVRGHINGQETHFEHHIIINTINGKIHSIRVHTK” it is 0.735.
The value for “DEELKALEDLSKKEIEAHLTGDEDTLVQLADPNMKILYNGREFHGWNVWKKISSKMIEEMRLRRVELEHVHVINGQIDSHGILDVEVNGRRVKERMHIVMLKVNGRWLIHSVEYR” was 1.27; that for “DEELNEWEEWMRRAMKADETGDEDTVTHMLDPNVKFDIDGVELVGREEFIRFFRELRISFHHFKFDHIRDINGRVRVEGTVHLEIIIGEFRHRDDRRTERIELKINGRWYIHSMKIG” was 1.18; that for “DEEMQLAEEMSRKFLHNWHTGDWRIMSHLIDPDVKIIIVVGDKRIELHGRENFVKEIIRWLHHLRETDRRVDHLRIQGDKAHVRVTVHVRYGDKTMDLDEDIRILVVNGKIHSIEIIQV” was 1.02.
Take “DEENDLMLEMAFKFMHDWLTGDFDKETKLADPDVKYDVGEFRFHGREEVTKWLEDMERSLGIDHQFLNIHDLKVQGDKVHIKGELVLIVNGRKETRRVDLHFEIVDGRMRKVTIEKR”: the protease stability score was determined as 1.
With “DEENEHAKHLMRELIKSIITGDEEMIDHLADPNMRLRVGDKEWHGREEIQHWLRRLVEEARIHDVELTSVRTIGDKVILDTRVDIKQGDKRKIITLIIIVQKFDGRWIIEEIRIH”, the protease stability score came to 2.57.
The sequence “DEENEHSEKISEEVLHALHTGDWNRLAHLADPHTLLIIEYGDKEIVNHGWEVFVKWILDVFRKVKNIKVHIRDSKVIGDKIHLDVEIHFNGRTTTVHIDITIIDGRLHSIHINHK” returned a protease stability score of 1.8.
The sequence “DEENEILRELHRELVEAWLTGDEELLRRLHDPDVRVHIGDKDLVGMEQMIEDIRFWLRRFDHLRIHIHRVRAINGVIHVDGELQLFQGDKSIRHQVIIELEVVNGRIKNTKFSTI” came in with a protease stability score of 1.4.
For the sequence “DEENERVHQALRDWRHIHRTGDEESTRHNMDPNARLDVNGVEVHGMEKVSEMFVELRIEHLHLERVHTQGEKVEVHTHVEVRQGDKRQEVKVIIFYIKINGRWFVERFEIH”, the protease stability score is 0.85.
The figure for “DEENHHTREIFKMTLKEVFTGNEEMTTRLLDPHVRVQVGDKTIHGWKHFTHIFFRLRHEFGVDHVQLRHLEIIGNKAVIHFSVYVGEWTYEFTIHALKVNGRWVLESLEVHQI” is 1.5; for “DEENKHLKEIARRFVEDWETGDEDSLKHMLDPHARVVINGVEVHGREEIIKLFREIFHHIRIDHITVNTVITVNGVAHSHIHIRVDINGQERRHNTELIFVFVDGQVSQIKFETE” it is 1.24.
In turn, “DEENKSMEEMIRLLTEALRTGDFELIHHLADPRMRILIGDKELHGWESWAQFVVKLGVKHTRIQIDDFRIIDGRINLHTHMEIDIDGRRTSSHTHMETIKVDGRWLITVLKIR” had a protease stability score of 1.1.
The sequence “DEENKVLEHMIRLIHHDRSTGDEKVLLKLFDPHARFIYHYGDKEIHLHGRKEITDLLVKLHRHIRVDRLHIDHWEFHGDKMHIDHTTRMNVNGREMETRIDLIITIIDGVIHSIEIRQR” registered a protease stability score of 1.19.
As to “DEENNIVKLLFHLYVRAIETGDWKTLEKLADPNYRTIFDGKDLHGREHYMRWVRELRVEDIKLNHIHMQGDKLSIDGEIDVRVGDKETRFEVHIIAEKINGRWILRSSIID”, the protease stability score was 1.82.
“DEEQEILKEMAKEILHMLQTGDWKRFLELADPNVKNIVNGREVHGREIVVEYIRKMGIDHHILHDVHIQGDKIHIHGTLEVNGKRIEVEIEIVVVNGRVKMIIFILK” returned a protease stability score of 2.05.
